{"source": "patent US20250177547A1", "about": "“PSMA-STEAP1 DUAL VARIABLE DOMAIN IMMUNOGLOBLIN (DVD-Ig) MOLECULES AND DRUG CONJUGATES” (AbbVie Inc., priority 2023, published 2025)", "molecules": {"B1": {"name": "STEAP1-PSMA-(vcMMAE) Clone 15: PSMA-STEAP1 DVD-Ig clone 15 conjugated with monomethyl auristatin E (MMAE) (conjugate)", "heavy": "EVQLVESGGGVVQPGRSLRLSCVASGFPFNNYWMTWIRQAPGKGLEWIASITITGGTTYYPGSVKGRFTISRDNSKSTLYLQMNSLRAEDTAVYYCTRERYSTEYYPYYWYFDFWGQGTMVTVSSGGGGSGGGGSEVQLVQSGAEVKKPGSSVKVSCKASGYTFTDYYMNWVKQAPGKGLEWIGLINPSNGGTNYNQKFRDKATLTVDKSTSTAYMELSSLRSEDTAVYYCARRAQATSGDYWGQGTTVTVSS", "light": "DIQMTQSPSSLSASVGDRVTITCRTSQDIGNYLRWFQQKPGKSPKLMIYDAINLAAGVPSRFSGSGSGTDYTLTISSLQPEDVATYYCLQHNEYPYTFGQGTKLEIKGGSGGGGSGDIQMTQSPSSLSASVGDRVTITCHASQNINVWLSWYQQKPGKAPKLLIYKASNLHTGVPSRFSGSGSGTDFTFTISSLQPEDIATYYCQQGQTYPLTFGGGTKVEIK", "modifications": "left off: a dimerising Fc or GST; large carriers"}}, "key": {"LNCaP.FGC xenograft": {"system": "LNCaP.FGC xenograft", "assay": "LNCaP.FGC xenograft study of MMAE conjugates", "format": "in vivo, mouse", "protocol": "(§1) Male NSG mice were obtained from Jackson Laboratories (Bar Harbor, ME) for both LNCaP.FGC and 22Rv1 xenograft studies. Mice were housed by treatment group at seven to eight mice per cage. Food and water were available ad libitum. Mice were acclimated to the animal facilities for a period of at least one week prior to commencement of experiments. Animals were tested in the light phase of a 12-hour light:12-hour dark schedule (lights on at 06:00 hours).\n(§2) To generate xenografts from LNCaP.FGC (ATCC) and from 22Rv1 (ATCC) cell lines, 5×10^6 viable LNCaP.FGC and 22Rv1 cells were inoculated subcutaneously into the right flank of male NSG mice, respectively. The injection volume was 0.1 mL and composed of a 1:1 mixture with Matrigel (BD, Franklin Lakes, NJ). Measurements of the length (L) and width (W) of the tumor were taken via electronic caliper and the tumor volume was calculated according to the following equation: V=L×W^2/2.\nMice were assigned to treatment groups so that the mean tumor volumes within groups were approximately 175-250 mm^3. An anti-PSMA-MMAE ADC at Dose-1 1×, an anti-STEAP1-MMAE ADC at Dose-1 1×, and various of the PSMA/STEAP-1 DVD-Igs conjugated with MMAE described above at Dose-1 1.33×(Clone 13 was administered at Dose-1 0.87×due to limited compound availability) were administered within 24-48 hours of assignment to treatment groups based on tumor volumes. Tumor volumes were estimated two times weekly after dosing, with study groups body weights taken at the time of tumor measurements. Mice were euthanized (1) when tumor volume reached 2,000 mm^3, (2) when general efficacy parameters were confidently determined, or (3) when necessitated by other animal health issues.\nParameters of Efficacy were determined as follows:\nTGI (tumor growth inhibition)=1−(mean tumor volume of treatment group/mean tumor volume of treatment control group)×100 based on measurements on day of vehicle endpoint. P values are derived from Student's T test comparison of treatment group vs. vehicle control group.\nTGD (tumor growth delay)=(T−C)/C×100, where T is the median time to endpoint of treatment group and C is the median time to endpoint of treatment control group. P values are derived from Kaplan Meier log-rank comparison of treatment group vs. vehicle control group."}, "22Rv1 xenograft": {"system": "22Rv1 xenograft", "assay": "22Rv1 xenograft study of MMAE conjugates", "format": "in vivo, mouse", "conditions": "FIG. 4A", "protocol": "as §1, §2\nMice were assigned to treatment groups so that the mean tumor volumes within groups were approximately 175-250 mm^3. […] Mice were euthanized (1) when tumor volume reached 2,000 mm^3, (2) when general efficacy parameters were confidently determined, or (3) when necessitated by other animal health issues."}, "HEK293-PSMA cells": {"system": "HEK293-PSMA cells", "assay": "In vitro cytotoxicity of MMAE conjugates (CellTiter-Glo), HEK293-PSMA", "conditions": "FIG. 3B/3E"}}, "note": "Marks after values point to notes of the source that are not given here."}
{"molecule": "B1", "values": [{"measurement": "activity in LNCaP.FGC xenograft model relative to monospecific ADCs", "setting": "LNCaP.FGC xenograft; FIG. 4B", "result": "comparable or superior activity relative to monospecific ADCs"}, {"measurement": "PR (%) partial response", "setting": "LNCaP.FGC xenograft; LNCaP.FGC xenograft, IP, QD x 1, >25 mm^3 but less than one-half of volume at onset", "result": "38* %"}, {"measurement": "TR (%) total responders", "setting": "LNCaP.FGC xenograft; LNCaP.FGC xenograft, IP, QD x 1, sum of CR and PR", "result": "75*** %"}, {"measurement": "CR (%) complete response", "setting": "LNCaP.FGC xenograft; LNCaP.FGC xenograft, IP, QD x 1, tumor burden ≤25 mm^3 for at least three consecutive measurements", "result": 38, "unit": "%"}, {"measurement": "TGI (%)", "setting": "LNCaP.FGC xenograft; LNCaP.FGC xenograft, male NSG mice, IP, QD x 1, day of comparison d 63 post inoculation", "result": "88*** %"}, {"measurement": "TGD (%)", "setting": "LNCaP.FGC xenograft; LNCaP.FGC xenograft, male NSG mice, IP, QD x 1, tumor volume endpoint 1000 mm^3", "result": "229*** %"}, {"measurement": "activity in 22Rv1 xenograft model relative to monospecific ADCs", "setting": "22Rv1 xenograft", "result": "comparable or superior activity relative to monospecific ADCs"}, {"measurement": "cytotoxic activity in HEK293-PSMA cells", "setting": "HEK293-PSMA cells", "result": "weaker than PSMA-MMAE"}]}
